Patent publication US20260083855A1 (Hoffmann-La Roche, published 2026)

T1: IL-2R on human cells (activated CD4 T cells, PBMC subsets, NK92) (human, UniProt P14784 27-551; P31785 23-369)
T1 sequence (looked up) 1: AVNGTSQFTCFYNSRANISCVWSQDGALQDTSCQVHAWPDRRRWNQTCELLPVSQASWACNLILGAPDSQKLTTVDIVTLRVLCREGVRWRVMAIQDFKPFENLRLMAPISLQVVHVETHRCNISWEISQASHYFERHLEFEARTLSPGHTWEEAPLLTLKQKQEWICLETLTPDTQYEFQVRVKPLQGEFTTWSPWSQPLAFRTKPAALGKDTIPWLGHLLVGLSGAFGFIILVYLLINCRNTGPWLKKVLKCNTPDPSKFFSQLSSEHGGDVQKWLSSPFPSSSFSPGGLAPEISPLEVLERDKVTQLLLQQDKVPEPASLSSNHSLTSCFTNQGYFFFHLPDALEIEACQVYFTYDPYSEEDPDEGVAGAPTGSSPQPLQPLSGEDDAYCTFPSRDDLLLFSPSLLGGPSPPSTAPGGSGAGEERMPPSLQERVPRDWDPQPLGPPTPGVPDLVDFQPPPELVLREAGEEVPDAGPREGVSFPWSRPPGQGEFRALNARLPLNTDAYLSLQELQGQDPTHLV
T1 sequence (looked up) 2: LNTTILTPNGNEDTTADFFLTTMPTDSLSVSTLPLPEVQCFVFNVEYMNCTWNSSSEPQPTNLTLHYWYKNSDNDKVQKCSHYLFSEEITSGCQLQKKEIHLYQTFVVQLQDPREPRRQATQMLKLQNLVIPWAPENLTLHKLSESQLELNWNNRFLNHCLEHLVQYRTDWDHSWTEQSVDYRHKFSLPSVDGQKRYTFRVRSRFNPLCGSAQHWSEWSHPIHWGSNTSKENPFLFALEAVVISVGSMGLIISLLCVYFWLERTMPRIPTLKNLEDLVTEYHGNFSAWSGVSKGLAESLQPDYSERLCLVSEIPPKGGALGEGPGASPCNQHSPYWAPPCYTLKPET

T2: human LAG-3 on activated CD4 T cells (human, UniProt P18627 23-525)
T2 sequence (looked up): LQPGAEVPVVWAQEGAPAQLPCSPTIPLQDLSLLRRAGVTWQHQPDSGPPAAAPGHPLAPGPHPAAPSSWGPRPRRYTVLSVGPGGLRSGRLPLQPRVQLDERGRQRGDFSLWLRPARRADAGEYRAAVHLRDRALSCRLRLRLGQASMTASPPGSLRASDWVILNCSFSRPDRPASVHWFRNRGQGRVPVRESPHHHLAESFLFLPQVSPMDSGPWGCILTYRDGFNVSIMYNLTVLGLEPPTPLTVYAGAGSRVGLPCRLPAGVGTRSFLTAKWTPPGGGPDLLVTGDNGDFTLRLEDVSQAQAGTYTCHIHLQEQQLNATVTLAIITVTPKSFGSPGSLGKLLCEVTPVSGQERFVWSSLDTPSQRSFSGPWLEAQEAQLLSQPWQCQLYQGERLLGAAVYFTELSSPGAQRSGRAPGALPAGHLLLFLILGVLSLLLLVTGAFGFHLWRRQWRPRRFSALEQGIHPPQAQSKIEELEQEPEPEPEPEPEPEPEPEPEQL

B1: anti-PD1 IgG PG LALA (P1AA6888) (antibody, V domains shown)
VH: EVQLLESGGGLVQPGGSLRLSCAASGFSFSSYTMSWVRQAPGKGLEWVATISGGGRDIYYPDSVKGRFTISRDNSKNTLYLQMNSLRAEDTAVYYCVLLTGRVYFALDSWGQGTLVTVSS
VL: DIVMTQSPDSLAVSLGERATINCKASESVDTSDNSFIHWYQQKPGQSPKLLIYRSSTLESGVPDRFSGSGSGTDFTLTISSLQAEDVAVYYCQQNYDVPWTFGQGTKVEIKR
B2: PD1-LAG3-IL2v (P1AF4801) (bispecific antibody, human IgG1, kappa, L234A L235A)
light 1: EVQLLESGGGLVQPGGSLRLSCAASGFSFSSYTMSWVRQAPGKGLEWVATISGGGRDIYYPDSVKGRFTISRDNSKNTLYLQMNSLRAEDTAVYYCVLLTGRVYFALDSWGQGTLVTVSSASVAAPSVFIFPPSDEQLKSGTASVVCLLNNFYPREAKVQWKVDNALQSGNSQESVTEQDSKDSTYSLSSTLTLSKADYEKHKVYACEVTHQGLSSPVTKSFNRGEC
light 2: not shown
heavy 1: EVQLLESGGGLVQPGGSLRLSCAASGFIFDDYTMNWVRQAPGKGLEWVAVISWDGGGTYYTDSVKGRFTISRDDFKNTLYLQMNSLRAEDTAVYYCAKGLTDTTLYGSDYWGQGTLVTVSSASTKGPSVFPLAPSSKSTSGGTAALGCLVEDYFPEPVTVSWNSGALTSGVHTFPAVLQSSGLYSLSSVVTVPSSSLGTQTYICNVNHKPSNTKVDEKVEPKSCDKTHTCPPCPAPEAAGGPSVFLFPPKPKDTLMISRTPEVTCVVVDVSHEDPEVKFNWYVDGVEVHNAKTKPREEQYNSTYRVVSVLTVLHQDWLNGKEYKCKVSNKALGAPIEKTISKAKGQPREPQVCTLPPSRDELTKNQVSLSCAVKGFYPSDIAVEWESNGQPENNYKTTPPVLDSDGSFFLVSKLTVDKSRWQQGNVFSCSVMHEALHNHYTQKSLSLSPGK
heavy 2: not shown
B3: PD1-LAG3-IL2v Q126T (P1AF7951) (bispecific antibody, human IgG1, kappa, L234A L235A)
light 1: B2 light 1
light 2: not shown
heavy 1: B2 heavy 1
heavy 2: not shown

What was measured:
Assay in all cases: cell-based or functional assay
[1] = target: T3, human PD-1 on activated CD4 T cells (human, UniProt Q15116 25-288)
T3 sequence (Q15116 25-288 limits assumed): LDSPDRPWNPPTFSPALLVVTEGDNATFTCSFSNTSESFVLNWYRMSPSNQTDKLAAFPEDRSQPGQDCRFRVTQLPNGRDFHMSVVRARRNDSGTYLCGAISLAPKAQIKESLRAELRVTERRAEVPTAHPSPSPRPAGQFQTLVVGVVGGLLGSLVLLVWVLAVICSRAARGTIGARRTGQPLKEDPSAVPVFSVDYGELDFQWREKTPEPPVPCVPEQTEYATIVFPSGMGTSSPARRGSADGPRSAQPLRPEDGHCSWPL

[2] = target: T1, IL-2R on human cells (activated CD4 T …)
[3] = target: T3, human PD-1 on activated CD4 T cells; remark: listed apart in the source
[4] = target: T2, human LAG-3 on activated CD4 T cells
[5] = target: T3, human PD-1 on activated CD4 T cells; remark: listed apart in the source
[6] = target: T2, human LAG-3 on activated CD4 T cells; remark: listed apart in the source
[7] = target: T1, IL-2R on human cells (activated CD4 T …); remark: listed apart in the source

| Binder | Percentage of internalization (0.6 nM, activated CD4 T cells, 3 h at 37 C) [1] | Percentage of internalization (0.6 nM, activated CD4 T cells, 3 h at 37 C) [2] | STAT5-P potency on PD-1+, LAG-3+ T cells against PD1-IL2v [3] | STAT5-P potency on PD-1+, LAG-3+ T cells against PD1-IL2v [4] | Cis-delivery: fold increase in EC50, EC50 [PD1/LAG-3 bl.]/EC50 [PD1+/LAG-3+] [5] | Cis-delivery: fold increase in EC50, EC50 [PD1/LAG-3 bl.]/EC50 [PD1+/LAG-3+] [6] | Potency reduction vs PD1-IL2v on PD-1+ LAG-3+ T cells [7] |
| --- | --- | --- | --- | --- | --- | --- | --- |
| B1 | 13.6% |  |  |  |  |  |  |
| B2 |  | 25.7% | 127 fold | 127 fold | 1110 fold | 1110 fold | 0.00787 fold |
| B3 |  | 28.1% | 6.5 fold | 6.5 fold | 485 fold | 485 fold | 0.154 fold |
